In patent US20250042956A1:

Key:
[1] = target: AT3G10480.3 NAC050 (Arabidopsis thaliana) (UniProt Q9SQX9); experiment: X-link IP-MS
[2] = target: AT3G20740.1 FIE (Arabidopsis thaliana) (UniProt Q9LT47); experiment: X-link IP-MS
[3] = target: AT3G10490.2 NAC052 (Arabidopsis thaliana) (UniProt Q9SQY0); experiment: X-link IP-MS
[4] = target: AT1G22950.1 ICU11 (Arabidopsis thaliana) (UniProt Q3ED68); experiment: X-link IP-MS
[5] = target: AT5G11530.1 EMF1 (Arabidopsis thaliana) (UniProt Q9LYD9); experiment: X-link IP-MS
[6] = target: T1, AT5G67580.1 TRB2 (Arabidopsis thaliana) (UniProt Q9FJW5); experiment: X-link IP-MS
T1 sequence: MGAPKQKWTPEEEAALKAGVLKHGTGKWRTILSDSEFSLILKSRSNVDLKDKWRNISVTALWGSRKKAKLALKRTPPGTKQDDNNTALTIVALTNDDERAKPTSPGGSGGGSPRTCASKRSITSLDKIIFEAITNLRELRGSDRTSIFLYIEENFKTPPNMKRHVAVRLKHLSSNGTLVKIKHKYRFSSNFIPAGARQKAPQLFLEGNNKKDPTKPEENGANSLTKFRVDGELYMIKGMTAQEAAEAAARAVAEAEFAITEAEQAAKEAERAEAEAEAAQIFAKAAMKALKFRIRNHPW

[7] = target: AT5G58230.1 MSI1 (Arabidopsis thaliana) (UniProt O22467); experiment: X-link IP-MS
[8] = target: AT3G18210.1 CP2 (Arabidopsis thaliana) (UniProt P0DO23); experiment: X-link IP-MS
[9] = target: AT3G10480.3 NAC050 (Arabidopsis thaliana) (UniProt Q9SQX9); experiment: IP-MS rep 2
[10] = target: AT3G20740.1 FIE (Arabidopsis thaliana) (UniProt Q9LT47); experiment: IP-MS rep 2
[11] = target: AT3G10490.2 NAC052 (Arabidopsis thaliana) (UniProt Q9SQY0); experiment: IP-MS rep 2
[12] = target: AT1G22950.1 ICU11 (Arabidopsis thaliana) (UniProt Q3ED68); experiment: IP-MS rep 2
[13] = target: AT5G11530.1 EMF1 (Arabidopsis thaliana) (UniProt Q9LYD9); experiment: IP-MS rep 2
[14] = target: T1, AT5G67580.1 TRB2 (Arabidopsis thaliana); experiment: IP-MS rep 2
[15] = target: AT5G58230.1 MSI1 (Arabidopsis thaliana) (UniProt O22467); experiment: IP-MS rep 2
[16] = target: AT3G18210.1 CP2 (Arabidopsis thaliana) (UniProt P0DO23); experiment: IP-MS rep 2
[17] = target: AT3G10480.3 NAC050 (Arabidopsis thaliana) (UniProt Q9SQX9); experiment: IP-MS rep 1
[18] = target: AT3G20740.1 FIE (Arabidopsis thaliana) (UniProt Q9LT47); experiment: IP-MS rep 1
[19] = target: AT3G10490.2 NAC052 (Arabidopsis thaliana) (UniProt Q9SQY0); experiment: IP-MS rep 1
[20] = target: AT1G22950.1 ICU11 (Arabidopsis thaliana) (UniProt Q3ED68); experiment: IP-MS rep 1
[21] = target: AT5G11530.1 EMF1 (Arabidopsis thaliana) (UniProt Q9LYD9); experiment: IP-MS rep 1
[22] = target: T1, AT5G67580.1 TRB2 (Arabidopsis thaliana); experiment: IP-MS rep 1
[23] = target: AT5G58230.1 MSI1 (Arabidopsis thaliana) (UniProt O22467); experiment: IP-MS rep 1
[24] = target: AT3G18210.1 CP2 (Arabidopsis thaliana) (UniProt P0DO23); experiment: IP-MS rep 1
[25] = target: T2, AT5G17690.1 LHP1 (Arabidopsis thaliana) (UniProt Q946J8); experiment: X-link IP-MS
T2 sequence: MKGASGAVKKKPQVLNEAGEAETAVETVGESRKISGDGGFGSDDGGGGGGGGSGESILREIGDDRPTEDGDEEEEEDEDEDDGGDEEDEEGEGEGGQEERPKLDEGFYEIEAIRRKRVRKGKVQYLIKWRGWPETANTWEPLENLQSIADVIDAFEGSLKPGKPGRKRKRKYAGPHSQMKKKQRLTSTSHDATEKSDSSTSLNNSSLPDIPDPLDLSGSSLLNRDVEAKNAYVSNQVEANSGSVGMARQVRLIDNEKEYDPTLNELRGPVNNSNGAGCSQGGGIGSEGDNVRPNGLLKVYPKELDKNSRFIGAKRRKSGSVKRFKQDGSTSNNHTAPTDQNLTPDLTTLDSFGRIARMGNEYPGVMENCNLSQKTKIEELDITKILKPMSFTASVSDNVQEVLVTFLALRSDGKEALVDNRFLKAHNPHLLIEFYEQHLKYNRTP

[26] = target: AT5G51230.1 EMF2 (Arabidopsis thaliana) (UniProt Q8L6Y4); experiment: X-link IP-MS
[27] = target: T3, AT4G02020.1 SWN (Arabidopsis thaliana) (UniProt Q9ZSM8); experiment: X-link IP-MS
T3 sequence (looked up): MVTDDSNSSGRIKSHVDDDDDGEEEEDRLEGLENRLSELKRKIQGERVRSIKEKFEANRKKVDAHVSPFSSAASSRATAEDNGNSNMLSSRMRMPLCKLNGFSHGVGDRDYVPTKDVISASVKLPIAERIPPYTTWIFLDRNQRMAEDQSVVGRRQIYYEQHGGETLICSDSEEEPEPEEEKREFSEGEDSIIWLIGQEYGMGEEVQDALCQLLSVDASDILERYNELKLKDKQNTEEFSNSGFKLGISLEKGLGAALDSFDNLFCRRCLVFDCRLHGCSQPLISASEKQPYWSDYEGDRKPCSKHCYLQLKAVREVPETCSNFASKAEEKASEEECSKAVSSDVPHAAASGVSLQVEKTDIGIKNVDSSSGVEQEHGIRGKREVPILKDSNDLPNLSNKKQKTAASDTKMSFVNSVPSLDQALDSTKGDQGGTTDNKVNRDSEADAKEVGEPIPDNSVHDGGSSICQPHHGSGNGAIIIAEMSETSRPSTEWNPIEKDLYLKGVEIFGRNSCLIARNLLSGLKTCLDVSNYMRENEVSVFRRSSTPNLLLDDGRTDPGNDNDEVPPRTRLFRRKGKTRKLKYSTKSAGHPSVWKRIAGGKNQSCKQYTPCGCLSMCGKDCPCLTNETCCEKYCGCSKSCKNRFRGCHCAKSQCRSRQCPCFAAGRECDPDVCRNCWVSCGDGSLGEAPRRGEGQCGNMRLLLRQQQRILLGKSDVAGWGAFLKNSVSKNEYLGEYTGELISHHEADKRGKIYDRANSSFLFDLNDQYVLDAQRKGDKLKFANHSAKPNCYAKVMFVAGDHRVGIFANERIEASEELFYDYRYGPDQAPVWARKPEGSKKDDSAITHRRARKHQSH

[28] = target: AT2G23380.1 CLF (Arabidopsis thaliana) (UniProt P93831); experiment: X-link IP-MS
[29] = target: AT1G49950.3 TRB1 (Arabidopsis thaliana) (UniProt Q8VWK4); experiment: X-link IP-MS
[30] = target: T2, AT5G17690.1 LHP1 (Arabidopsis thaliana); experiment: IP-MS rep 2
[31] = target: AT5G51230.1 EMF2 (Arabidopsis thaliana) (UniProt Q8L6Y4); experiment: IP-MS rep 2
[32] = target: T3, AT4G02020.1 SWN (Arabidopsis thaliana); experiment: IP-MS rep 2
[33] = target: AT2G23380.1 CLF (Arabidopsis thaliana) (UniProt P93831); experiment: IP-MS rep 2
[34] = target: AT1G49950.3 TRB1 (Arabidopsis thaliana) (UniProt Q8VWK4); experiment: IP-MS rep 2
[35] = target: T2, AT5G17690.1 LHP1 (Arabidopsis thaliana); experiment: IP-MS rep 1
[36] = target: AT5G51230.1 EMF2 (Arabidopsis thaliana) (UniProt Q8L6Y4); experiment: IP-MS rep 1
[37] = target: T3, AT4G02020.1 SWN (Arabidopsis thaliana); experiment: IP-MS rep 1
[38] = target: AT2G23380.1 CLF (Arabidopsis thaliana) (UniProt P93831); experiment: IP-MS rep 1
[39] = target: AT1G49950.3 TRB1 (Arabidopsis thaliana) (UniProt Q8VWK4); experiment: IP-MS rep 1
[40] = target: AT4G20400.1 JMJ14 (Arabidopsis thaliana) (UniProt Q8GUI6); experiment: IP-MS rep 2
[41] = target: AT4G38130.1 HDA19 (Arabidopsis thaliana) (UniProt O22446); experiment: IP-MS rep 2
[42] = target: AT5G63110.1 HDA6 (Arabidopsis thaliana) (UniProt Q9FML2); experiment: IP-MS rep 2
[43] = target: AT4G20400.1 JMJ14 (Arabidopsis thaliana) (UniProt Q8GUI6); experiment: IP-MS rep 1
[44] = target: AT4G38130.1 HDA19 (Arabidopsis thaliana) (UniProt O22446); experiment: IP-MS rep 1
[45] = target: AT5G63110.1 HDA6 (Arabidopsis thaliana) (UniProt Q9FML2); experiment: IP-MS rep 1

AT1G22950.1 ICU11 (Arabidopsis thaliana), sequence (Q3ED68 whole entry): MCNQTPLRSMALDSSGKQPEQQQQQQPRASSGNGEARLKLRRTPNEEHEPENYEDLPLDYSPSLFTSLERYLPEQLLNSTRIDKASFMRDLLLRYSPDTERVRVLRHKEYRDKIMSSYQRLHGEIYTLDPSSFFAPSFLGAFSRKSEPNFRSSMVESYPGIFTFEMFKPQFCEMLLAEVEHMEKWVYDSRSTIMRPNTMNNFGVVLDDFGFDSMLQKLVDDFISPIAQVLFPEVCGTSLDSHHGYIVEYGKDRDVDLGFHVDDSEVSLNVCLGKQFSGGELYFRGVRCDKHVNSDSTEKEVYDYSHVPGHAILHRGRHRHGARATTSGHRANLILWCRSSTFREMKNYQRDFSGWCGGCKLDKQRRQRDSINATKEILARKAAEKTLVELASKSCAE
AT4G20400.1 JMJ14 (Arabidopsis thaliana), sequence (Q8GUI6 whole entry): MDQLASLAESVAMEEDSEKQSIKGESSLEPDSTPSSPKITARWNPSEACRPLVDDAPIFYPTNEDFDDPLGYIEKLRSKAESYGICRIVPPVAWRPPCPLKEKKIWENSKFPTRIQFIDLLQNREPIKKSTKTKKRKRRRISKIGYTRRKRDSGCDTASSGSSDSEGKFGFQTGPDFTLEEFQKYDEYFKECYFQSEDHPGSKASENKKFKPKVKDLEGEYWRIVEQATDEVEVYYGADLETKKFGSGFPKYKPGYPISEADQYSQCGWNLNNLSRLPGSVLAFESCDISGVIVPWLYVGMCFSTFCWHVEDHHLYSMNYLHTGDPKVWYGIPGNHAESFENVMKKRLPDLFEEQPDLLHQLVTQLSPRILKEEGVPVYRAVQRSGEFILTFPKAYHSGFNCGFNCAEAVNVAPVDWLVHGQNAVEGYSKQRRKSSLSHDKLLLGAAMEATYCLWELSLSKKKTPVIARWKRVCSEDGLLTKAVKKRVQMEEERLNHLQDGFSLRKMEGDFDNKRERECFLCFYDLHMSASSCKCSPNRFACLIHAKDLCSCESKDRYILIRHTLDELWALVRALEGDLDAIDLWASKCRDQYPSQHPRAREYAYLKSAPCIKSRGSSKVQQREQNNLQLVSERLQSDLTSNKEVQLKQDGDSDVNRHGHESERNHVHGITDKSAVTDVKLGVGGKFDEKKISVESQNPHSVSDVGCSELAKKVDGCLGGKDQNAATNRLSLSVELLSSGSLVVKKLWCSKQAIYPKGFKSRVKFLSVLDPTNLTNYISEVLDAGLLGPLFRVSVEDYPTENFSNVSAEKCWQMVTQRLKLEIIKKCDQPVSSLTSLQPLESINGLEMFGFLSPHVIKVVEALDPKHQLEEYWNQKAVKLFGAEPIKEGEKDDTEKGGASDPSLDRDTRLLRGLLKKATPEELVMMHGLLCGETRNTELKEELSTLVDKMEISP
AT3G20740.1 FIE (Arabidopsis thaliana), sequence (Q9LT47 whole entry): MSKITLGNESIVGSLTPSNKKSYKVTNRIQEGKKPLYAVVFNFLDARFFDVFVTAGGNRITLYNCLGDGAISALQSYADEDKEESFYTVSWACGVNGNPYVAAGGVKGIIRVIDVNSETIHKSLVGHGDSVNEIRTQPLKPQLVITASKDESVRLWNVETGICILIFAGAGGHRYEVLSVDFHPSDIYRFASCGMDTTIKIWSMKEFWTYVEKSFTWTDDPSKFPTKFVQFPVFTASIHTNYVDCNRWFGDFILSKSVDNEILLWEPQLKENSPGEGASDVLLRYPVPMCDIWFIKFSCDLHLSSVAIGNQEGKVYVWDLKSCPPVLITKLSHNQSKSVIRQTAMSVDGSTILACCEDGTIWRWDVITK
AT3G10480.3 NAC050 (Arabidopsis thaliana), sequence (Q9SQX9 whole entry): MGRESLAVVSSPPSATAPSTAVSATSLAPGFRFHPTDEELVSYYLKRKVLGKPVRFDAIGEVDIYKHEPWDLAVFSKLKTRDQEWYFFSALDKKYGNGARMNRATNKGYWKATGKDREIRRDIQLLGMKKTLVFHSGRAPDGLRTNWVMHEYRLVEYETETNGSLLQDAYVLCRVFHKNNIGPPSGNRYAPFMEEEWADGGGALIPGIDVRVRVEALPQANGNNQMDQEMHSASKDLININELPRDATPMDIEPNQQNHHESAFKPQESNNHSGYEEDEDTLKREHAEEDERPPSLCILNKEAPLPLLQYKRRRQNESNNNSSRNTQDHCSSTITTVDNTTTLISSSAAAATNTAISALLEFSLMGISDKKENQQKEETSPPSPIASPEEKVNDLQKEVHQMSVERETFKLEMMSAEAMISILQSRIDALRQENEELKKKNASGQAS
AT5G11530.1 EMF1 (Arabidopsis thaliana), sequence (Q9LYD9 whole entry): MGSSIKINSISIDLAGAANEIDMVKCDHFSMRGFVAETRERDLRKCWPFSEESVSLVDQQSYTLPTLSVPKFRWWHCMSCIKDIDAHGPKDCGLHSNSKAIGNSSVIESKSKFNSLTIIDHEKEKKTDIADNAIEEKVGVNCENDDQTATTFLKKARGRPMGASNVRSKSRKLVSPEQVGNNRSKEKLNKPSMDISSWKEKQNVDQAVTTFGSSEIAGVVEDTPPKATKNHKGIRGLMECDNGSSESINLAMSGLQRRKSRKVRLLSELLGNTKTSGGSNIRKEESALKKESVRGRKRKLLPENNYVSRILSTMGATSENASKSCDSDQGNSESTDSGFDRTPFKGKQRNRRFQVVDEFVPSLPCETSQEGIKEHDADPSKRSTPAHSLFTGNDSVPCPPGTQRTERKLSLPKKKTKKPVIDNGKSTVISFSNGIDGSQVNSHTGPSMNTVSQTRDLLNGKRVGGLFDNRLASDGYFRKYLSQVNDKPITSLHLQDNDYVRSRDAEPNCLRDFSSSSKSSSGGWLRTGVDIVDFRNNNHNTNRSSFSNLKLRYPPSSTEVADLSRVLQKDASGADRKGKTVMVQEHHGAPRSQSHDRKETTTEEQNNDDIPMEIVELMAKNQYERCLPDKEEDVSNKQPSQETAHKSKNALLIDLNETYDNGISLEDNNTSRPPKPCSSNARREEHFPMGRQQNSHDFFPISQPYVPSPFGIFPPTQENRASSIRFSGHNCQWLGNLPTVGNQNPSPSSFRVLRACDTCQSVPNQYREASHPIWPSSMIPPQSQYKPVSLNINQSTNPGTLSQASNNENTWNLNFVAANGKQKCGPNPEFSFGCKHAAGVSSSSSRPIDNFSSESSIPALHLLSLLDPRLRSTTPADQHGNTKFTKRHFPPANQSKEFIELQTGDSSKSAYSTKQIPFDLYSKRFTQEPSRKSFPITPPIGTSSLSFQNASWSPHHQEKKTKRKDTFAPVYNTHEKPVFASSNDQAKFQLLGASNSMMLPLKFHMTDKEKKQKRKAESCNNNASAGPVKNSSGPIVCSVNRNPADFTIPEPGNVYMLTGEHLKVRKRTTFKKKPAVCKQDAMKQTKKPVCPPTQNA
AT1G49950.3 TRB1 (Arabidopsis thaliana), sequence (Q8VWK4 whole entry): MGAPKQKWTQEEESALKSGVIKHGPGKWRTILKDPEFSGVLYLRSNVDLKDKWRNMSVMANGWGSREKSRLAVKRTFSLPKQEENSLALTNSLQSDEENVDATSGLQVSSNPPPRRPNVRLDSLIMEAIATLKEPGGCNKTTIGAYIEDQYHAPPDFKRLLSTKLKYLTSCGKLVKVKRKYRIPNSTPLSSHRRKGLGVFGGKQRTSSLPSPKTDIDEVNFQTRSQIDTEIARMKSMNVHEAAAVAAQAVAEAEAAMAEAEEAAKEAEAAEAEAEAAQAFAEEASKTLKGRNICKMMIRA
AT5G51230.1 EMF2 (Arabidopsis thaliana), sequence (Q8L6Y4 whole entry): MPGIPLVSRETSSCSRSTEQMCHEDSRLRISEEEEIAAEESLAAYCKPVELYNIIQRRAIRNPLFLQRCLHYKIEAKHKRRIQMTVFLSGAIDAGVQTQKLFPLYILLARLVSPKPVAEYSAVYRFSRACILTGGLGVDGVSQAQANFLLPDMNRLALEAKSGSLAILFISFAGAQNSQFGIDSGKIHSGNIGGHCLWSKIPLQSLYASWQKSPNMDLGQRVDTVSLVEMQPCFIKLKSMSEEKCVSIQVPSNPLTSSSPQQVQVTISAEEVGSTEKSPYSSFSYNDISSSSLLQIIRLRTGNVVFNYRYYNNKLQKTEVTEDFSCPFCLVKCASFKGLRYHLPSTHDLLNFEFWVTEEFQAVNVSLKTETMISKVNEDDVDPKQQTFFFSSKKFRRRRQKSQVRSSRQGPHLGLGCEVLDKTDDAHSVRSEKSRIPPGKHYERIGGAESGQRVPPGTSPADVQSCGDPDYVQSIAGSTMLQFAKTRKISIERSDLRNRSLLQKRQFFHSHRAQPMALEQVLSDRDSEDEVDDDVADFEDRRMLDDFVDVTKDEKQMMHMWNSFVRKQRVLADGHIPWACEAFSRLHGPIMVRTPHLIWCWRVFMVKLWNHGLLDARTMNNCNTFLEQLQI
AT3G10490.2 NAC052 (Arabidopsis thaliana), sequence (Q9SQY0 whole entry): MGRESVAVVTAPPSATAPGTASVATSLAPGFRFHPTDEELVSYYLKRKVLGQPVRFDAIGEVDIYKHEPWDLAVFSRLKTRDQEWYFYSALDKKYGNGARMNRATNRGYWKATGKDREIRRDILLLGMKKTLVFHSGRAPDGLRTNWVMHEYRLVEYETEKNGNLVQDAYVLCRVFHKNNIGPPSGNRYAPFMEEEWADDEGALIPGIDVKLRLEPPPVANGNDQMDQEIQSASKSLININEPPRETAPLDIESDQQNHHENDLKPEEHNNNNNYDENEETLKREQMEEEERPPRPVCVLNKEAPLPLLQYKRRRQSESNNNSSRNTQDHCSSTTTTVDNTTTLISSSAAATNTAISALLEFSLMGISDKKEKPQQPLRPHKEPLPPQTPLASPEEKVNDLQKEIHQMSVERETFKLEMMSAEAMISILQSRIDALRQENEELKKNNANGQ

IP-MS count [1] | IP-MS count [2] | IP-MS count [3] | IP-MS count [4] | IP-MS count [5] | IP-MS count [7] | IP-MS count [8] | IP-MS count [9] | IP-MS count [10] | IP-MS count [11] | IP-MS count [12] | IP-MS count [13] | IP-MS count [15] | IP-MS count [18] | IP-MS count [19] | IP-MS count [20] | IP-MS count [21] | IP-MS count [23] | IP-MS count [32] | IP-MS count [37] | Substance | other results
 |  |  |  |  |  |  |  | 3 | 2 | 19 | 7 | 9 | 22 | 10 | 32 | 36 | 20 | 6 | 15 | TRBIP1 (bait of the TRBIP1 IP-MS) | IP-MS count [30]: 8; IP-MS count [31]: 3; IP-MS count [40]: 0; IP-MS count [33]: 0; IP-MS count [41]: 3; IP-MS count [42]: 5; IP-MS count [35]: 14; IP-MS count [36]: 10; IP-MS count [43]: 7; IP-MS count [38]: 7; IP-MS count [44]: 4; IP-MS count [45]: 7
 |  |  |  |  |  |  |  |  | 0 | 4 | 0 | 0 |  | 4 | 16 | 4 | 3 | 0 | 3 | TRBIP2 (bait of the TRBIP2 IP-MS) | IP-MS count [40]: 0; IP-MS count [41]: 1; IP-MS count [42]: 3; IP-MS count [43]: 3; IP-MS count [44]: 4; IP-MS count [45]: 10

Further lines, the substance ahead of its results:

Substance | IP-MS count [1] | IP-MS count [2] | IP-MS count [3] | IP-MS count [4] | IP-MS count [5] | IP-MS count [7] | IP-MS count [8] | IP-MS count [9] | IP-MS count [10] | IP-MS count [11] | IP-MS count [12] | IP-MS count [13] | IP-MS count [15] | IP-MS count [18] | IP-MS count [19] | IP-MS count [20] | IP-MS count [21] | IP-MS count [23] | IP-MS count [32] | IP-MS count [37] | other results
FLAG-TRB1 (from UniProt Q8VWK4 1-300) | 40 | 5 | 55 | 27 | 11 | 12 | 11 | 35 | 3 | 103 | 79 | 2 | 12 | 1 | 103 | 75 | 3 | 11 |  |  | IP-MS count [6]: 2; IP-MS count [14]: 0; IP-MS count [16]: 17; IP-MS count [17]: 33; IP-MS count [22]: 0; IP-MS count [24]: 13
FLAG-TRB2 (from UniProt Q9FJW5 1-299) | 39 | 35 | 55 | 33 | 90 | 30 | 17 | 1 | 28 | 22 | 50 | 56 | 21 | 30 | 11 | 53 | 55 | 26 | 12 | 11 | IP-MS count [25]: 17; IP-MS count [26]: 27; IP-MS count [27]: 33; IP-MS count [28]: 15; IP-MS count [29]: 10; IP-MS count [30]: 15; IP-MS count [31]: 15; IP-MS count [33]: 5; IP-MS count [34]: 4; IP-MS count [16]: 5; IP-MS count [35]: 15; IP-MS count [36]: 10; IP-MS count [17]: 1; IP-MS count [38]: 5; IP-MS count [39]: 0; IP-MS count [24]: 4
FLAG-TRB3 (from UniProt Q9M2X3 1-295) | 39 | 34 | 59 | 37 | 104 | 31 | 12 | 4 | 41 | 28 | 73 | 83 | 35 | 34 | 24 | 79 | 81 | 37 | 24 | 16 | IP-MS count [25]: 18; IP-MS count [26]: 29; IP-MS count [27]: 36; IP-MS count [28]: 19; IP-MS count [29]: 9; IP-MS count [30]: 19; IP-MS count [31]: 23; IP-MS count [33]: 19; IP-MS count [34]: 0; IP-MS count [16]: 31; IP-MS count [35]: 15; IP-MS count [36]: 23; IP-MS count [17]: 5; IP-MS count [38]: 15; IP-MS count [39]: 0; IP-MS count [24]: 38
